The record followed here is patent US20120213794A1 (published 2012).

One assay concerns the target T1, Mouse PCSK9 (mouse, UniProt Q80W65 35-694, limits assumed).
T1 construct: Column head prints 'Mouse 9'; also called Mouse 9; mPCSK9
The assay is described as follows: Biacore (SPR), IgG2 format. On the technique in general: In SPR one partner is held on a chip, and binding of the other changes the refractive index at the surface.

The target of the next assay is T2, human PCSK9 (human, UniProt Q8NBP7 31-692).
T2 construct: also called hPCSK9
T2 sequence (Q8NBP7 31-692 limits assumed): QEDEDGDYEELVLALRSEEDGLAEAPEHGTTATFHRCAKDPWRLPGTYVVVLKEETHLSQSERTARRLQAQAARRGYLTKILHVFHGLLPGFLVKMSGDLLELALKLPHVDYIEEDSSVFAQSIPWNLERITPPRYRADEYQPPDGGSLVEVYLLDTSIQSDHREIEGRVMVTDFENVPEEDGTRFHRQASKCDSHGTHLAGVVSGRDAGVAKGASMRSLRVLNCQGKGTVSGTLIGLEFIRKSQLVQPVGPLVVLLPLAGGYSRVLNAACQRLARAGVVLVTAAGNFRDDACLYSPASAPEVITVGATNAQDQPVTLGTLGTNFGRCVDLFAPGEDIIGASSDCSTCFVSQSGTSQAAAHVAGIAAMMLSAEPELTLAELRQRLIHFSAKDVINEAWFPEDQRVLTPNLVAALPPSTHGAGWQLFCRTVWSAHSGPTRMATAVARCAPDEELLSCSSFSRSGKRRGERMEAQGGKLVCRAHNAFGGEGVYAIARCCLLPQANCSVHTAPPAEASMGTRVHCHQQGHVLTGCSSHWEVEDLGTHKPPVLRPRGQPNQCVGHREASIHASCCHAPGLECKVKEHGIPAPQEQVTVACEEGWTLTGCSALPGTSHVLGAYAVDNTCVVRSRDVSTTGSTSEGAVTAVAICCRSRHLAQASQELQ
The assay is described as follows: Biacore (SPR), IgG2 captured, PCSK9 as analyte.

A further assay has as its target T3, Rhesus PCSK9 (rhesus, UniProt A8T666 31-692, limits assumed).
T3 construct: also called rhPCSK9
The assay is described as follows: Biacore (SPR), IgG2 captured, PCSK9 as analyte.

Usually Kd stands for the equilibrium constant for the complex coming apart.

T1 sequence (Q80W65 35-694 limits assumed): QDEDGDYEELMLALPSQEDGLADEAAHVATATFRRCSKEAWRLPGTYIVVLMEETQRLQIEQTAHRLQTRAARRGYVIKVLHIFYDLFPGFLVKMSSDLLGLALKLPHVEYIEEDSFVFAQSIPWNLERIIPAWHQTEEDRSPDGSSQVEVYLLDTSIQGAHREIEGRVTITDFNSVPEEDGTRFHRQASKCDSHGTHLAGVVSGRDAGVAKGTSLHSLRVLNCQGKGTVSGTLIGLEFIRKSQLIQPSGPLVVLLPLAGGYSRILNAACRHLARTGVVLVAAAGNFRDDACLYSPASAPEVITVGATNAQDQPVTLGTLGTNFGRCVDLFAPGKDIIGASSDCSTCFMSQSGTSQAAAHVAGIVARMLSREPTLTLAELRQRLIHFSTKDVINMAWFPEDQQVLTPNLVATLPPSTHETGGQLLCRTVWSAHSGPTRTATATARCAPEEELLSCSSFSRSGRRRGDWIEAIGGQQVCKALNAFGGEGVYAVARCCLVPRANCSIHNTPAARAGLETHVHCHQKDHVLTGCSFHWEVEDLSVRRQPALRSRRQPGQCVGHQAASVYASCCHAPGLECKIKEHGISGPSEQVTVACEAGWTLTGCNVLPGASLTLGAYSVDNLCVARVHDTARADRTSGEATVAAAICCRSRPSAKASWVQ
T3 sequence (A8T666 31-692 limits assumed): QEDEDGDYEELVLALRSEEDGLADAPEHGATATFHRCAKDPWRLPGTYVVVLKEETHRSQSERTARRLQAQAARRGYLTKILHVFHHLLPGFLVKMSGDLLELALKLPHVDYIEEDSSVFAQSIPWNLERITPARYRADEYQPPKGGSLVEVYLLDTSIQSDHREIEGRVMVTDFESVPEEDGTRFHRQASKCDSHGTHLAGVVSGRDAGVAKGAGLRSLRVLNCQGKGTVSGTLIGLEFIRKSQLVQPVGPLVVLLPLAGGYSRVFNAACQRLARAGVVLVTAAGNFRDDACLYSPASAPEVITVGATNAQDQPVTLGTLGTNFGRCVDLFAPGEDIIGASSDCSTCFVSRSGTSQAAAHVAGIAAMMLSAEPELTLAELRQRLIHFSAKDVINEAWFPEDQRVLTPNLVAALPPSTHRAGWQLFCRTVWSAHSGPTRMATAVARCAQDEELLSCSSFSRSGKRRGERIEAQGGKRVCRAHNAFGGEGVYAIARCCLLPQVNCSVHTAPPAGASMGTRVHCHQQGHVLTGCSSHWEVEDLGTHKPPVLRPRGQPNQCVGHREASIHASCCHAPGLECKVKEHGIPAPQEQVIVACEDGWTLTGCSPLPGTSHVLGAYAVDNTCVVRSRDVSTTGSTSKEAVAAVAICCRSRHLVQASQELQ

B1: AX137 IgG2 (antibody, V domains shown)
VH: EVQLLESGGGLVQPGGSLRLSCKASGYTFSSYGMYWVRQAPGKGLEWIGWIDPGSGGTKYNEKFKGKATISRDNSKNTLYLQMNSLRAEDTAVYYCARERYGYYFDYWGQGTLVTVSS
VL: EIVLTQSPATLSLSPGERATITCRASQYIGSYLNWYQQKPGQAPRLLIYDASNRATGIPARFSGSGSGTDFTLTISSLEPEDFAVYYCQAWDSSPPVVFGGGTKVEIK
Take B1: the binding result with Mouse PCSK9 is on record as “no binding”. Further, the values for the dissociation constant (Kd) with human PCSK9 and with Rhesus PCSK9 were 9.98 nM and 10 nM, respectively.
